Experimental findings from the RNAGym collection of RNA variant scans (doi:10.1073/pnas.2313332121) are described below.

Sequences and labels used below:
B1: TPR t1 (parent)
chain: GACCAAUCUGCCCUCAGAGCUCGAGAACAUCUUCGGAUGCAGAGGAGGCAGGCUUCGGUGGCGCGAUAGCGCCAACGUCCUCAACCUCCAAUGCAUCCCACCACAUGAUGAUGCCUGAAGAGCCUUGGUUUUUUG

Variants of B1 are the subject of the data set. Briefly: polymerase ribozyme fitness, log enrichment relative to wild type (log ratio); higher = more active; in vitro selection for triplet polymerase activity. The gist of the method:
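Mutant libraries were PCR-built and transcribed for each subunit of a heterodimeric triplet polymerase ribozyme and selected for one round in triplicate at −7 °C, frozen, before gel excision of extended constructs and streptavidin-bead capture. Input and output libraries were Illumina-sequenced, keeping genotypes with ≥10 input reads and ≥1 read per output. Fitness is a logarithmic ratio of genotype to wild-type enrichment, in base 2, using inverse-variance-weighted replicate averages.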
For C64G C124A, the “polymerase ribozyme fitness (log ratio)” value is -4.25.

As for C13U A74C, the “polymerase ribozyme fitness (log ratio)” value came out at 0.251.

As to G10U G77U U78G C114A, the “polymerase ribozyme fitness (log ratio)” value was -2.65.

On to C73A C102U U125G, for which the “polymerase ribozyme fitness (log ratio)” value was -2.45.

For A105G U106A G120U U133C, the “polymerase ribozyme fitness (log ratio)” value worked out at 0.414.

C8G G71C: the “polymerase ribozyme fitness (log ratio)” value is -0.095.

For the variant G52C G71U C73U C104U G120C, the “polymerase ribozyme fitness (log ratio)” value was -2.42.

Take A27G U55A G77C A95C: the “polymerase ribozyme fitness (log ratio)” value was -4.8.

G69U G113U: the “polymerase ribozyme fitness (log ratio)” value was -0.867.

A2G G93A: the “polymerase ribozyme fitness (log ratio)” value was -0.719.

Turning to A50C G58C C98U C123G, the “polymerase ribozyme fitness (log ratio)” value was determined as 0.72.

C79U G113A C123U U129C: the “polymerase ribozyme fitness (log ratio)” value is -3.48.

On to C12A G45U G51C G52U U59C C123G, for which the “polymerase ribozyme fitness (log ratio)” value is -5.71.

Regarding C73A U81G C88A U112G C115A U125A, the “polymerase ribozyme fitness (log ratio)” value was -5.14.

With C4U U14A G69A C101U, the “polymerase ribozyme fitness (log ratio)” value is -5.32.

As for C15A G69U G77U G122A C123A, the “polymerase ribozyme fitness (log ratio)” value was -1.41.

With C11U A121G, the “polymerase ribozyme fitness (log ratio)” value worked out at 1.13.

With G10U A18U A29U U54A A121C, the “polymerase ribozyme fitness (log ratio)” value was -1.32.

In the case of C3U C73A G135U, the “polymerase ribozyme fitness (log ratio)” value is -1.52.

With C53U U78C C124G, the “polymerase ribozyme fitness (log ratio)” value was 1.86.

In the case of C62U A111U, the “polymerase ribozyme fitness (log ratio)” value was -2.55.

C8G G122A: the “polymerase ribozyme fitness (log ratio)” value came to 0.556.

G61U C114G: the “polymerase ribozyme fitness (log ratio)” value was -1.85.

For A2U G36U A41U U54G, the “polymerase ribozyme fitness (log ratio)” value is -6.42.

As to U30A G61A C88U, the “polymerase ribozyme fitness (log ratio)” value is -5.29.

As to A6U G60U C64U A91G C102G G110U, the “polymerase ribozyme fitness (log ratio)” value was -7.78.

U112A U126A: the “polymerase ribozyme fitness (log ratio)” value amounted to 1.04.

With G71U A91U U132C, the “polymerase ribozyme fitness (log ratio)” value was -2.4.

On to A43U G77C U78A C79U G120U U131C, for which the “polymerase ribozyme fitness (log ratio)” value was -1.51.

With C49G G57U C82G U96G, the “polymerase ribozyme fitness (log ratio)” value was -2.49.

On to C12G G93U U112A, for which the “polymerase ribozyme fitness (log ratio)” value was 0.281.

As for A37C C76G, the “polymerase ribozyme fitness (log ratio)” value was -0.251.

For C11G C13U C101G, the “polymerase ribozyme fitness (log ratio)” value was -1.63.

Take C3A G61A: the “polymerase ribozyme fitness (log ratio)” value was -1.23.

Take G63U U81C C86A U129C: the “polymerase ribozyme fitness (log ratio)” value is -5.92.

A26C G61A U96A: the “polymerase ribozyme fitness (log ratio)” value is -5.9.

In the case of A37C G60A C76G, the “polymerase ribozyme fitness (log ratio)” value is -2.7.

On to C28U G60A C72G G110C C115G G120U, for which the “polymerase ribozyme fitness (log ratio)” value is -7.22.

As for C22G C94U C101G, the “polymerase ribozyme fitness (log ratio)” value was -5.92.

Regarding A5C C62U C85U C123A, the “polymerase ribozyme fitness (log ratio)” value is -1.09.

In the case of A16U G45C C56G C64U A83C, the “polymerase ribozyme fitness (log ratio)” value is -4.1.

Consider A43C G45A A50G G113U G120C, for which the “polymerase ribozyme fitness (log ratio)” value is -1.89.

Turning to C53G C115G, the “polymerase ribozyme fitness (log ratio)” value was -1.44.

For the variant G36A U59C U126G, the “polymerase ribozyme fitness (log ratio)” value is -2.55.

Consider G45U G69U A119U, for which the “polymerase ribozyme fitness (log ratio)” value is -0.819.

On to G36U G60C G69U A100U, for which the “polymerase ribozyme fitness (log ratio)” value is -4.04.

For the variant G57C G120U C124U, the “polymerase ribozyme fitness (log ratio)” value worked out at 0.197.

In the case of G61U G63A, the “polymerase ribozyme fitness (log ratio)” value was -4.12.

C34U U78C: the “polymerase ribozyme fitness (log ratio)” value was -4.25.

In the case of G60A G120U, the “polymerase ribozyme fitness (log ratio)” value was determined as 0.305.

C31A C73U: the “polymerase ribozyme fitness (log ratio)” value is -5.76.

As for C89A G110A, the “polymerase ribozyme fitness (log ratio)” value was -3.58.

Consider G61A C97A C124U, for which the “polymerase ribozyme fitness (log ratio)” value is -3.09.

Take G10C A18C C20U C56U: the “polymerase ribozyme fitness (log ratio)” value was -3.11.

Consider G48C C62U C64U C97U A100U C123A, for which the “polymerase ribozyme fitness (log ratio)” value is -2.01.

On to C82G C102A G120A G122U, for which the “polymerase ribozyme fitness (log ratio)” value is -2.05.

With A41C A91U A95C G113A, the “polymerase ribozyme fitness (log ratio)” value was -3.38.

G93C U131G: the “polymerase ribozyme fitness (log ratio)” value is -1.28.

As to G35C G63C, the “polymerase ribozyme fitness (log ratio)” value is -5.87.

C11U G45A G48A: the “polymerase ribozyme fitness (log ratio)” value is -2.77.

With C13U G71U U78C, the “polymerase ribozyme fitness (log ratio)” value was found to be 0.0986.

For the variant A18G G57U U59C C62A C94U G117U, the “polymerase ribozyme fitness (log ratio)” value was -5.27.

With G60C C85A, the “polymerase ribozyme fitness (log ratio)” value is -0.933.

Regarding C11A G61A G93A C101G U112A U132A, the “polymerase ribozyme fitness (log ratio)” value is -1.04.

As for G10U A27G U59A C98U, the “polymerase ribozyme fitness (log ratio)” value was -6.42.

Take C89A A119U: the “polymerase ribozyme fitness (log ratio)” value is -1.88.

Regarding U54A C70G C88U, the “polymerase ribozyme fitness (log ratio)” value was -3.24.

Take A24U U30C G58A G63C A95G G120C: the “polymerase ribozyme fitness (log ratio)” value was -8.06.

For C8A G47C C56G C82U U87A C101U G107U C115U A118C, the “polymerase ribozyme fitness (log ratio)” value was -6.49.

In the case of C13A U81A, the “polymerase ribozyme fitness (log ratio)” value is -3.27.

On to C31G C124G, for which the “polymerase ribozyme fitness (log ratio)” value was -6.98.

In the case of C56G U81A U125A, the “polymerase ribozyme fitness (log ratio)” value is -1.81.

On to A26G U109G, for which the “polymerase ribozyme fitness (log ratio)” value was -6.07.

For C73U A119U, the “polymerase ribozyme fitness (log ratio)” value was -0.348.

On to U9G A37U A43U C73A C98A C124A, for which the “polymerase ribozyme fitness (log ratio)” value was -7.17.

For G71A C94G A108G C123A G135U, the “polymerase ribozyme fitness (log ratio)” value is -4.8.

On to U87G C123A, for which the “polymerase ribozyme fitness (log ratio)” value was found to be 0.557.

Take C8A G19U G44U C97U: the “polymerase ribozyme fitness (log ratio)” value was -3.97.

In the case of A2G C11A C49G G71U C85A U92C, the “polymerase ribozyme fitness (log ratio)” value is -2.64.

C11U C72U A83U C101G: the “polymerase ribozyme fitness (log ratio)” value is -1.79.

With C15G C89U A90G, the “polymerase ribozyme fitness (log ratio)” value is -2.42.

As to C13U G48U, the “polymerase ribozyme fitness (log ratio)” value was -1.37.

Regarding C8G C28G C97A U106A C115U U133G, the “polymerase ribozyme fitness (log ratio)” value is -5.09.

As to A43C G60C U131G, the “polymerase ribozyme fitness (log ratio)” value was -3.6.
